Assay results as given in US20190307847A1.

Target: mouse FGFR4/β-klotho complex co-expressed in rat L6 myoblast cells (mouse) (UniProt Q03142)
Test: cell-based or functional assay

mouse FGFR4/β-klotho complex co-expressed in rat L6 myoblast cells (mouse), sequence (Q03142 17-799, chain 1 of 2): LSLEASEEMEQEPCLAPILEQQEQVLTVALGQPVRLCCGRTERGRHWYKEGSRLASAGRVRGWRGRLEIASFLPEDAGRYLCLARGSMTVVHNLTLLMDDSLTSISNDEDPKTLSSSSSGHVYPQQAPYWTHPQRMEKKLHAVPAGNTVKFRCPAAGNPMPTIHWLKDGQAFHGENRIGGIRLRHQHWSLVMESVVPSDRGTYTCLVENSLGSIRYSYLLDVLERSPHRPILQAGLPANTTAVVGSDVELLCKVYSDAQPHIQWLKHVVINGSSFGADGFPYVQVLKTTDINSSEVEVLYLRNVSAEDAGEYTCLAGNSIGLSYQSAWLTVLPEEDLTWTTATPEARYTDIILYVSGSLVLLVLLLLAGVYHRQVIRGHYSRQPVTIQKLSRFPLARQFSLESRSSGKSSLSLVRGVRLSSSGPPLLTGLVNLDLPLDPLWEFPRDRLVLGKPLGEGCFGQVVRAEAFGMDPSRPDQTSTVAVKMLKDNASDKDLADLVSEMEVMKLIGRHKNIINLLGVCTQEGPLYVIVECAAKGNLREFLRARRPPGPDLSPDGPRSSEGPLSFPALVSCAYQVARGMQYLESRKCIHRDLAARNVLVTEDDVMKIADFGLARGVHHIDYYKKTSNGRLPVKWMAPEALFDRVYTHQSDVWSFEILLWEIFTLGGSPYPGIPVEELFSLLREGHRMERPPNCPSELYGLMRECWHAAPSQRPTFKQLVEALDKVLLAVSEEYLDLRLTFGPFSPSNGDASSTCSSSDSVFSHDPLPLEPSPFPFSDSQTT
mouse FGFR4/β-klotho complex co-expressed in rat L6 myoblast cells (mouse), sequence (Q99N32 whole entry, chain 2 of 2, further chain): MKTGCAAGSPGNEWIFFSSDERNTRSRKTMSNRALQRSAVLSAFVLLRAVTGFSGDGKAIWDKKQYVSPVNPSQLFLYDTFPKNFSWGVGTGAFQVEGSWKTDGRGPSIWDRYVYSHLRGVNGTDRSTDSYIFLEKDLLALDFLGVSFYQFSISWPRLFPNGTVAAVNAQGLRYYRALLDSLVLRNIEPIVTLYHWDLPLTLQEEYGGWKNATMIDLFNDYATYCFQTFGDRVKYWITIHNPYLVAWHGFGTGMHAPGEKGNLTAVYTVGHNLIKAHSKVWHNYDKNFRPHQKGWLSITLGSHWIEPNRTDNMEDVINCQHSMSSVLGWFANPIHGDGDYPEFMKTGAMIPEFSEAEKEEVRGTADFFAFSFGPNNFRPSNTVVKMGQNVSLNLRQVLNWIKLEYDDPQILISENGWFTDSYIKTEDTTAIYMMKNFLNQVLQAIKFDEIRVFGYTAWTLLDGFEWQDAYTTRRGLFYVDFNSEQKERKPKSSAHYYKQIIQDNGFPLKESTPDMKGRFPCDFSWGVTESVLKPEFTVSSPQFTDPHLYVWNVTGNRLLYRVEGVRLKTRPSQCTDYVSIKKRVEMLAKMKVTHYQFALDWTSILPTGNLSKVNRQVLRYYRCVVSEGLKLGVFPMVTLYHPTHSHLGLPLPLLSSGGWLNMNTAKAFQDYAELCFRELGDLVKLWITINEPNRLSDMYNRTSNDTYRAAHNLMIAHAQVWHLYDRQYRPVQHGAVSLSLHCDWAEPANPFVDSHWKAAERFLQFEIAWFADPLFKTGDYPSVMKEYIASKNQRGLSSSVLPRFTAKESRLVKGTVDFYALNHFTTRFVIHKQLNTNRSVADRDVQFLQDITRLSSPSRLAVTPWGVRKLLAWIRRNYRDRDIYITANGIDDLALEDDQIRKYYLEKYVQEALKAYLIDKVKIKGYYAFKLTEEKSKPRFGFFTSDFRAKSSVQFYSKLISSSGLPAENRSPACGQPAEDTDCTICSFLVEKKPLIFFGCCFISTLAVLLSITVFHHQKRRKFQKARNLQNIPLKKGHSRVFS

EC50 (pM), ELK luciferase assay in L6 cells: 52.5 pM | Emax (fold potentiation), ELK luciferase assay in L6 cells (fold potentiation): 1.82
Substance: FGF19 (human fibroblast growth factor 19, wild type) (from UniProt O95750 25-216) (ligand)
